Broadly, the Kd is the equilibrium constant for the complex coming apart.

Our source for the Kd values is PMC9460513, “The 5′-phosphate enhances the DNA-binding and exonuclease activities of human mitochondrial genome maintenance exonuclease 1 (MGME1)”.

Data set [1] has as its target T1, MGME1 (Homo sapiens, UniProt Q9BQP7 21-344).
T1 sequence: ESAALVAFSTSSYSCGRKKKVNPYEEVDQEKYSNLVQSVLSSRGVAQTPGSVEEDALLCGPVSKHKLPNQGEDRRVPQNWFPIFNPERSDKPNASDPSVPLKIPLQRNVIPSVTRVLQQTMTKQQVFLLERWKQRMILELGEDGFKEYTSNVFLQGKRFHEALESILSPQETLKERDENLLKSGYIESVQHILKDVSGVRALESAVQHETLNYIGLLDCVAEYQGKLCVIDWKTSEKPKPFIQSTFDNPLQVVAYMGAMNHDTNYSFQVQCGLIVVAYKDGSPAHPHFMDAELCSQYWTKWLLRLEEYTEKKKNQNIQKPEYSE
The experiment in a line: fluorescence polarization; 10 mM EDTA; FP: 2 nM FAM-ssDNA, 20 mM Hepes pH 8.0 (at 37 C), 100 mM NaCl, 0.1 mg/ml BSA, 1 mM DTT, 10 mM EDTA, mixed at room temperature, 15 min; EMSA: 1 uM ssDNA, 20 mM Hepes pH 8.0, 100 mM NaCl, 1 mM DTT, 10 mM EDTA, room temperature 15 min, gel 0.35x TBE at 4 C. The note with it: protein: recombinant, tags: His-SUMO tag removed by Ulp1, single strand. In general terms: Polarisation of emitted light reports the rotation of a fluorescent probe.

The target of data set [2] is T1, MGME1. The experiment in a line: competition (fluorescence polarization); 10 mM EDTA; 140 nM MGME1 with 2 nM T20(5') preformed; FP: 2 nM FAM-ssDNA, 20 mM Hepes pH 8.0 (at 37 C), 100 mM NaCl, 0.1 mg/ml BSA, 1 mM DTT, 10 mM EDTA, mixed at room temperature, 15 min; EMSA: 1 uM ssDNA, 20 mM Hepes pH 8.0, 100 mM NaCl, 1 mM DTT, 10 mM EDTA, room temperature 15 min, gel 0.35x TBE at 4 C. The note with it: protein: recombinant; tags: His-SUMO tag removed by Ulp1; single strand. For orientation: Mobility shift assays separate free from complexed probe on a gel.

On to TTTTTTTTTT (ssDNA, 5'-phosphate-tetrahydrofuran (abasic) before T10) [T10(3')-5'dSp], for which, in the data set with MGME1 [1] (label: 3'-6FAM), the Kd was 340 ± 24 nM. In the case of TTTTTTTTTTTTTTTTTTTT (ssDNA, 5' phosphate linkage of the FAM label) [T20(5')], the Kd with MGME1 [1] (label: 5'-6FAM) was 240 ± 36 nM. For TTTTTTTTTT (ssDNA) [T10(3')], in the data set with MGME1 [1] (label: 3'-6FAM), the Kd was 7500 ± 890 nM. The same measure, in the same setting: with TTTTTTTTTT (ssDNA, 5'-phosphate) [T10(3')-5'p] the figure was 1600 ± 75 nM. In the case of TTTTTTTTTTTTTTTTTTTT (ssDNA, 5'-phosphate) [T20(3')-5'p], the Kd in the data set with MGME1 [1] (label: 3'-6FAM) is 180 ± 5 nM. In the case of AAAAAAAAAAAAAAAAAAAA (ssDNA, 5' phosphate linkage of the FAM label) [A20(5')], the Kd in the data set with MGME1 [1] (label: 5'-6FAM) turned out to be 1300 ± 170 nM. For TTTTTTTTTTTTTTTTTTTT (ssDNA) [T20 (unlabeled)], the Kd with MGME1 [2] was found to be 250 ± 33 nM.

In the case of TTTTTTTTTTTTTTTTTTTT (ssDNA) [T20(3')], the Kd with MGME1 [1] (label: 3'-6FAM) worked out at 330 ± 83 nM.

Take TTTTTTTTTT (ssDNA, 5' phosphate linkage of the FAM label) [T10(5')]: in the data set with MGME1 [1] (label: 5'-6FAM), the Kd was found to be 600 ± 150 nM.
